Measurements published in the supplement of paper PMC7125110.
± gives the standard error. This sample holds only a part of the variants without activity.

B1: glmS ribozyme (parent)
chain: AUAAAAGCGCCAGAACUACAGAAAUGUAGUUGACGAGGAGGAGGUUUAUCGAAUUUUCGGCGGAUGCCUCCAAA

Variants of: B1
Experiment: self-cleavage kobs at 2500 uM GlcN6P; higher = faster cleavage; RNA array
Details: with glucosamine-6-phosphate
In short: (§1)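 A hybridised Cy3 probe tracked barcoded ribozyme variants, transcribed in situ by E. coli RNA polymerase on sequenced MiSeq chips, at 37 °C. The variants received 40 μM to 10 mM glucosamine-6-phosphate in HEPES/KCl/Mg(OAc)2 buffer. kobs came from decay fits and kcat and KM from weighted Michaelis–Menten fits.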

AUAAAAGCGCCAGCACUACAGAAAUGUAGCUAACGAGGAGGAGGUUUAUCGAAUUUUGGGCGGAUGCCUCCAAA and AUAAAAGCGCCAGCACUACAGAAAUGUAGUUAACGAGGAGGAGGUUUAUCGAAUUUUCGGCGGAUGGCUCCAAA are within error of each other in “self-cleavage kobs at 2500 uM GlcN6P” value: 7.82e-05 ± 3.2e-05 s⁻¹ for the first, 6.42e-05 ± 1.9e-05 s⁻¹ for the second.

AUAAAAGCGCCAUAACUACAGAAAUGUAGUGGACGACGAGGAGGUUUCUCGAAUUUUCGGCGGAUGCCUCCAAA and AUAAAAGCGCCAUAACUACAGAAAUGUAGUUGACGGGGAGGAGGUUUAUCGAAUUUUCGAUGGAUGCCUCCAAA cannot be ordered by “self-cleavage kobs at 2500 uM GlcN6P” value: under 1e-05 s⁻¹ for the first, under 1e-05 s⁻¹ for the second.

Going from AUAAAAGCGCCACAACUACAGAAAUGUAGUUGACGAGGAGAAGGAUUAUCGAAUUUUCGGCGGAUGCCUUCAAA to AUAAAAGCGCCAUAACUACAGAAAUGUAGUCGACGAGGAGGAGUUUUAUCGAAUUUUCGGCGGUUGCCUCCAAA, the “self-cleavage kobs at 2500 uM GlcN6P” value falls from 8.8e-05 ± 2e-05 s⁻¹ to under 1e-05 s⁻¹.

AUAAAAGCGCCAUAACUACAGAAAUGUAGUUGACGUGGAGGAGGUUUAUCGACUUUUCGGCGGAUGCCUCCAAA and AUAAAAGCGCCACAACUACAGAAAUGUAGUUGACGAGGAGGAGGUUUAUCGAAUUUUCGGAGGAUGCGUCCAAA cannot be ordered by “self-cleavage kobs at 2500 uM GlcN6P” value: under 1e-05 s⁻¹ for the first, under 1e-05 s⁻¹ for the second.

AUAAAAGCGCCAUAACUACAGAAAUGUAGUUGACGAGGAGGAGGUUUGUCGAAUUUGCGGCGGAUGCCUCCAAA and AUAAAAGCGCCACAACUACAGAAAUGUAGUUGACGAGGAAGAGGUUUAUCGAAUUUUCGUCGGAUGCCUCCAAA cannot be ordered by “self-cleavage kobs at 2500 uM GlcN6P” value: under 1e-05 s⁻¹ for the first, under 1e-05 s⁻¹ for the second.

AUAAAAGCGCCAAAACUACAGAAAUGUAGUUGACGAGGAGGAGUAUUAUCGAAUUUACGGCGGAUGCCCCCAAA and AUAAAAGCGCCAGCUCUACAGAAAUGUAGUUGACGAGGAGGAGGUUUAUCGAAUUUUCGGUGGAUGACUCCAAA cannot be ordered by “self-cleavage kobs at 2500 uM GlcN6P” value: under 1e-05 s⁻¹ for the first, under 1e-05 s⁻¹ for the second.

First: AUAAAAGCGCCAAAACUACAGAAAUGUAGUUGACGAGGAGGAGGUUUACUGAAUUUUCGGCGGAUGCCUCCAAA
Second: AUAAAAGCGCCACAACUACAGAAAUGUAGCUGACGAGGAGGAGGUUUAUCGAAUUUUCGGCGGAUGCCUCGAAA
The “self-cleavage kobs at 2500 uM GlcN6P” value of the first is lower: under 1e-05 s⁻¹ for the first, 4.16e-05 ± 2.1e-05 s⁻¹ for the second.

AUAAAAGCGCCACAACUACAGAAAUGUAGUUGACGAGGAGGAGGUUUAUCGAAUUUUCGGCGGAUGCCUCUAAA and AUAAAAGCGCCAAAACUACAGAAAUGUAGUUGACGAGGAGGAGGUUUAUCGAAGUUUCGGCGGAUGCAUCCAAA are within error of each other in “self-cleavage kobs at 2500 uM GlcN6P” value: 9.01e-05 ± 1.5e-05 s⁻¹ for the first, 7.33e-05 ± 2.7e-05 s⁻¹ for the second.

Going from AUAAAAGCGCCAUAACUACAGAAAUGUAGUUGAUGAGGGGGAGGUUUAUCGAAUUUUCGGCAGAUGCCUCCAAA to AUAAAAGCGCCAUAACUACAGAAAUGUAGUUGACGAGGAGGAGGUUUACAGAAUUUUCAGCGGAUGCCUGCAAA, the “self-cleavage kobs at 2500 uM GlcN6P” value rises from under 1e-05 s⁻¹ to 3.99e-05 ± 2e-05 s⁻¹.

First: AUAAAAGCGCCACAACUACAGAAAUGUAGUAGACGAGGAGGAGGUUUAUCGAGUUUUCGGCGGAUGCCUCCAAA
Second: AUAAAAGCGCCAGCACUACAGAAAUGUAGUUGACGAGGGGGAGGUUUAUCGAAUUUUGGGCGGAUGCCUCCAAA
The “self-cleavage kobs at 2500 uM GlcN6P” value of the first is 2.1-fold higher: 0.000107 ± 3.6e-05 s⁻¹ for the first, 5e-05 ± 1.9e-05 s⁻¹ for the second.

AUAAAAGCGCCAUAACUACAGAAAUGUAGUUGACGAGGAGGCGGUUCAUCGAAUUUCCGGCGGAUGCCUCCAAA and AUAAAAGCGCCAUAACUACAGAAAUGUAGUUGACGAGGAGGAUGUUUAUCGAAUUUUCGGGGGAUGCCUCCAAA cannot be ordered by “self-cleavage kobs at 2500 uM GlcN6P” value: under 1e-05 s⁻¹ for the first, under 1e-05 s⁻¹ for the second.

AUAAAAGCGCCAUAACUACAGAAAUGUAGUUGGCGAGGAGGAGGCUUAUCGAAUUUUCGGCGAAUGCCUCCAAA and AUAAAAGCGCCACAACUACAGAAAUGUAGUUGACGAGGAGGAGGUUUAUCGAAUUUUCAGCGGAUACUUCCAAA cannot be ordered by “self-cleavage kobs at 2500 uM GlcN6P” value: under 1e-05 s⁻¹ for the first, under 1e-05 s⁻¹ for the second.

Compared with AUAAAAGCGCCAAAACUACAGAAAUGUAGUUGACGAGGAGGAGGUUAAUCGAAUUUUCGGCGGAUACCUCCAAA, AUAAAAGCGCCAUAACUACAGAAAUGUAGUUGACGAGGAGGAGGUUAAUCGAAUUUUCGGCGGAUGCCUCGAAA is 1.7-fold lower in “self-cleavage kobs at 2500 uM GlcN6P” value: 0.000103 ± 2.2e-05 s⁻¹ for the first, 5.89e-05 ± 1.7e-05 s⁻¹ for the second.

AUAAAAGCGCCAAAACUACAGAAAUGUAGUUGACAAGGAGGUGGUUUAUCGAAUUUUCGGCGGAUGCCUCCAAA and AUAAAAGCGCCAUAACUACAGAAAUGUAGUUGACGGGCAGGAGGUUUAUAGAAUUUUCGGCGGAUGCCUCCAAA cannot be ordered by “self-cleavage kobs at 2500 uM GlcN6P” value: under 1e-05 s⁻¹ for the first, under 1e-05 s⁻¹ for the second.

First: AUAAAAGCGCCAGCACUACAGAAAUGUAGUUGACGAGGAUGAGGUUUAUCGAGUUUUCGGCGGAUGCCUCCAAA
Second: AUAAAAGCGCCAUAUCUACAGAAAUGUAGUUGACGAGGAGGAGGUUUAUCGAAUUUUCGGCGGAUGCCUCUAAA
The “self-cleavage kobs at 2500 uM GlcN6P” value of the first is 5.4-fold higher: 0.000325 ± 5.5e-05 s⁻¹ for the first, 5.99e-05 ± 2.5e-05 s⁻¹ for the second.

Variants of: B1
Experiment: self-cleavage kobs at 10000 uM GlcN6P; higher = faster cleavage; RNA array
Details: with glucosamine-6-phosphate
In short: as §1

Going from AUAAAAGCGCCAUAACUACAGAAAUGUAGUUGACGUGGAGGAGGUUUAUCGACUUUUCGGCGGAUGCCUCCAAA to AUAAAAGCGCCACAACUACAGAAAUGUAGUUGACGAGGAGGAGGUUUAUCGAAUUUUCGGCGGAUGCCUCUAAA, the “self-cleavage kobs at 10000 uM GlcN6P” value rises from under 1e-05 s⁻¹ to 0.000149 ± 1.6e-05 s⁻¹.

First: AUAAAAGCGCCACAACUACAGAAAUGUAGUAGACGAGGAGGAGGUUUAUCGAGUUUUCGGCGGAUGCCUCCAAA
Second: AUAAAAGCGCCAGCACUACAGAAAUGUAGUUGACGAGGGGGAGGUUUAUCGAAUUUUGGGCGGAUGCCUCCAAA
The “self-cleavage kobs at 10000 uM GlcN6P” value of the first is 3.3-fold higher: 0.000294 ± 5.7e-05 s⁻¹ for the first, 8.88e-05 ± 1.6e-05 s⁻¹ for the second.

First: AUAAAAGCGCCAUAACUACAGAAAUGUAGUUGACGAGGAGGCGGUUCAUCGAAUUUCCGGCGGAUGCCUCCAAA
Second: AUAAAAGCGCCAAAACUACAGAAAUGUAGUUGACGAGGAGGAGGUUAAUCGAAUUUUCGGCGGAUACCUCCAAA
The “self-cleavage kobs at 10000 uM GlcN6P” value of the first is lower: under 1e-05 s⁻¹ for the first, 0.000143 ± 2.8e-05 s⁻¹ for the second.

In the case of AUAAAAGCGCCAGCACUACAGAAAUGUAGUUGACGAGGAUGAGGUUUAUCGAGUUUUCGGCGGAUGCCUCCAAA, the “self-cleavage kobs at 10000 uM GlcN6P” value is reported as 0.000591 ± 0.0001 s⁻¹.
